Assay results taken from US20150231232.

Biological target: human IL-8 (UniProt P10145)
Sequence (P10145 28-99): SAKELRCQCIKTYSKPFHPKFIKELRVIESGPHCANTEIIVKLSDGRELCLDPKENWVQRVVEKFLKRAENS

In the case of “SpyCEP expressed in the lumen of E. coli OMVs (OMVs containing SpyCEP)”, the “hydrolysis of IL-8 (18% SDS-PAGE with silver staining)” value is reported as “IL-8 was almost completely cleaved after 2 hours incubation with 30 µg OMVs containing SpyCEP”.
